Laboratory results: paper PMC10269722, “LexR Positively Regulates the LexABC Efflux Pump Involved in Self-Resistance to the Antimicrobial Di-N-Oxide Phenazine in Lysobacter antibioticus”

T1: LexR (Lysobacter antibioticus OH13, UniProt A0A0S2F3V0 1-384)
T1 sequence: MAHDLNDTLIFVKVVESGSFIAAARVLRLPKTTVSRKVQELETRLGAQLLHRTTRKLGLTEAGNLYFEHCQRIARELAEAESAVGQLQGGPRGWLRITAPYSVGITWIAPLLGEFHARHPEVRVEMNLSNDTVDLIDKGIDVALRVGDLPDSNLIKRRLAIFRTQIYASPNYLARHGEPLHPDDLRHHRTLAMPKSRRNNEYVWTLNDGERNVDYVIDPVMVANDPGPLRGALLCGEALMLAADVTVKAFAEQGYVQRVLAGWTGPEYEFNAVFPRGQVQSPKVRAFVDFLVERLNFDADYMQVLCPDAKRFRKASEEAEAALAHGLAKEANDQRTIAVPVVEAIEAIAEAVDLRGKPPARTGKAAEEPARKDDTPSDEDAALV


Columns and labels:
LexR [1] = biological target: T1, LexR; assay: EMSA; EMSA (LightShift kit): 1x binding buffer, 50 ng/uL poly(dI-dC), 2.5% glycerol, 5 mM MgCl (so in the source), 0.05% NP-40, 5 fmol labeled probe in 20 uL, 30 min, room; conditions: protein: recombinant; tags: His6 (pET-28a, BamHI/EcoRI); chain copies: 2; label: 5' biotin; blunt
LexR [2] = biological target: T1, LexR; assay: EMSA; no myxin; EMSA (LightShift kit): 1x binding buffer, 50 ng/uL poly(dI-dC), 2.5% glycerol, 5 mM MgCl (so in the source), 0.05% NP-40, 5 fmol labeled probe in 20 uL, 30 min, room; conditions: protein: recombinant; tags: His6 (pET-28a, BamHI/EcoRI); chain copies: 2; label: 5' biotin; blunt
LexR [3] = biological target: T1, LexR; assay: competition; unlabeled competitor vs biotin-lex probe; EMSA (LightShift kit): 1x binding buffer, 50 ng/uL poly(dI-dC), 2.5% glycerol, 5 mM MgCl (so in the source), 0.05% NP-40, 5 fmol labeled probe in 20 uL, 30 min, room; conditions: protein: recombinant; tags: His6 (pET-28a, BamHI/EcoRI); chain copies: 2; label: none; blunt

Binder | binding result (LexR [1]) | further results
probe 2 (50 bp, 8-bp site deleted) (dsDNA) DNA 1: ACTTGATTAGCCACTGATTCAGGGACCCGACATCGGGCCAATGCCCTCTC DNA 2: GAGAGGGCATTGGCCCGATGTCGGGTCCCTGAATCAGTGGCTAATCAAGT | no binding | 
probe 1 (58 bp) (dsDNA) DNA 1: ACTTGATTAGCCACTGATTCAGGGAATAATTGTCCCGACATCGGGCCAATGCCCTCTC DNA 2: GAGAGGGCATTGGCCCGATGTCGGGACAATTATTCCCTGAATCAGTGGCTAATCAAGT | binds | 
control probe (158 bp) (dsDNA) DNA 1: ATGCGCCTCGCGATCAACACGGTCGCATCCCCTCTTTGCCAGCCACGGCTCCGCGCCTGCCAGCTTCTTTTTTCGTTGTCTGGGGGCTAGGGCGAGACACCCGCATACCGATGACTTCGTCGGCAGTGGCCCAAGACGGATTGCGTAGTGCGCCTACG DNA 2: CGTAGGCGCACTACGCAATCCGTCTTGGGCCACTGCCGACGAAGTCATCGGTATGCGGGTGTCTCGCCCTAGCCCCCAGACAACGAAAAAAGAAGCTGGCAGGCGCGGAGCCGTGGCTGGCAAAGAGGGGATGCGACCGTGTTGATCGCGAGGCGCAT | no binding | 
lex probe (165 bp) (dsDNA) DNA 1: ATGGGAGAAACGCGAATCGGGCTTGTCGGGGGCTCAACATGGCGGGGGGCCTCGTGTCGATCTGCGGCAAAGAGTAGAGAGATGGACGGCACTTGATTAGCCACTGATTCAGGGAATAATTGTCCCGACATCGGGCCAATGCCCTCTCTGCCTCCTTGAATGCCC DNA 2: GGGCATTCAAGGAGGCAGAGAGGGCATTGGCCCGATGTCGGGACAATTATTCCCTGAATCAGTGGCTAATCAAGTGCCGTCCATCTCTCTACTCTTTGCCGCAGATCGACACGAGGCCCCCCGCCATGTTGAGCCCCCGACAAGCCCGATTCGCGTTTCTCCCAT |  | binding result (LexR [2]): binds
unlabeled lex probe (165 bp) (dsDNA) DNA 1: ATGGGAGAAACGCGAATCGGGCTTGTCGGGGGCTCAACATGGCGGGGGGCCTCGTGTCGATCTGCGGCAAAGAGTAGAGAGATGGACGGCACTTGATTAGCCACTGATTCAGGGAATAATTGTCCCGACATCGGGCCAATGCCCTCTCTGCCTCCTTGAATGCCC DNA 2: GGGCATTCAAGGAGGCAGAGAGGGCATTGGCCCGATGTCGGGACAATTATTCCCTGAATCAGTGGCTAATCAAGTGCCGTCCATCTCTCTACTCTTTGCCGCAGATCGACACGAGGCCCCCCGCCATGTTGAGCCCCCGACAAGCCCGATTCGCGTTTCTCCCAT |  | binding result (LexR [3]): binds
probe 4 (probe 3 with putative LexR site) (dsDNA) DNA 1: GGCTCCGCGCCTGCCAGCATAATTGTTCGTTGTCTGGGGGCTAGGGCGAGACACCCGC DNA 2: GCGGGTGTCTCGCCCTAGCCCCCAGACAACGAACAATTATGCTGGCAGGCGCGGAGCC | no binding | 
